# Paper PMC11805834 (Applied Microbiology and Biotechnology, 2025)
# T1: mouse CD80-Fc fusion protein (mouse, UniProt Q00609 38-246)
# T1 sequence: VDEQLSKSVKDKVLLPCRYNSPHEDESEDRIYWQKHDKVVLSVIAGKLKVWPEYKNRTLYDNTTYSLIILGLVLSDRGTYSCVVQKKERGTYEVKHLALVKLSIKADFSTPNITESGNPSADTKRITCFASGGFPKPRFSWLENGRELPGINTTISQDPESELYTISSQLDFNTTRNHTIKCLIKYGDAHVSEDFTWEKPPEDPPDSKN
# Target: T1, mouse CD80-Fc fusion protein
# Assay: SPR
binder,measurement,value
Mouse CD28 protein with His tag (receptor) NKILVKQSPLLVVDSNEVSLSCRYSYNLLAKEFRASLYKGVNSDVEVCVGNGNFTYQPQFRSNAEFNCDGDFDNETVTFRLWNLHVNHTDIYFCKIEFMYPPPYLDNERSNGTIIHIKEKHLCHTQSSPKL,Kd,2490 nM
